From US20190359687A1 (Bayer, published 2019) come the findings set out here.

Test [1] concerns the target T1, human glycophorin A in the red blood cell membrane (human, UniProt P02724 20-150).
T1 construct: whole, on cells; used for intact RBC, isolated RBC membranes and transfected cells; the assay field tells which; also called GPA; hGPA
T1 sequence (looked up): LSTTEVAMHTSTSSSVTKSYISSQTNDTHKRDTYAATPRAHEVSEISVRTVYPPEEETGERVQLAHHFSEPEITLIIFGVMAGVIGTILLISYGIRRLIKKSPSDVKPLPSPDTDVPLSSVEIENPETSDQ
Kind of test: FACS on RBC of huGPA/HemA transgenic mice (muTGRBC), 1E+6 RBC/mL, scFv titrated.

Test [2] deals with T1, human glycophorin A in the red blood …. In words: FACS, IgG titrated on human GPA expressing CHO-QMCF1 cells (17d post txn). For orientation: In flow cytometry, cells or beads pass a laser one at a time.
Test [3] shares this target. In words: FACS, hu RBC.
Description: (§1) Hybridomas were generated from the spleen cells of these mice and these hybriomas were screened first by fluorescence activated cell sorting (FACS) against isolated human and monkey (Cynomolgus monkey and Rhesus monkey) red blood cells (RBC) and then by ELISA against purified human glycophorin A protein (GPA). Isolated RBC were prepared from whole blood from normal human, cynomolgus monkey, and beagle dog, were anticoagulant with sodium heparin (Bioreclamation). 2-3 mL of whole blood was loaded gently on the top of 3 mL Ficoll Plus (Sigma Aldrich) then centrifuged at 500 g for 20 min at room temperature (RT). The RBC pellets were washed 3 times with 10 mL of PBS, and centrifuge 400 g for 10 min at RT. RBC pellets were re-suspended in PBS at the same total volume as the original blood volume to achieve the same RBC cell density as in whole blood and stored at 4° C. Purified human glycophorin A protein was obtained from Sigma Aldrich and coated on ELISA plates at 2 ug/ml. Binding of antibodies to human GPA was detected using appropriate secondary antibodies using methods well known in the art.
For test [4], the target named is T2, recombinant human GPA ectodomain (human, UniProt P02724 20-91).
T2 construct: also called recombinant hGPA ECD; recGPA
T2 sequence: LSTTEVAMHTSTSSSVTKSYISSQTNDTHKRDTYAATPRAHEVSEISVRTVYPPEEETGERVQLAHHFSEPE
Kind of test: SPR, IgG.

Test [5] addresses T1, human glycophorin A in the red blood …. Kind of test: FACS, RBC Hu03.
Description: (§2) The binding of the humanized variants to intact red blood cells (RBC) from humans (Hu01 to 03; 3 individuals), Rhesus monkey (Rh01 to 03; 3 individuals) and Cynomolgus monkey (Cy01 to 02; 2 individuals) was measured by fluorescence activated cell sorting (FACS).
The target in test [6] is T3, purified human glycophorin A protein (Sigma, cat # G5017) (human, UniProt P02724 20-150).
T3 construct: mature; also called Sigma hGPA; Sigma GPA
T3 sequence (looked up): T1 sequence (looked up)
Kind of test: ELISA, IgG. A general note: In an ELISA, binding on a coated surface is turned into a signal by an enzyme label.

The target of test [7] is T4, Rhesus monkey glycophorin A on Rhesus monkey red blood cells (Rhesus monkey, UniProt A0A1D5Q349 20-150).
T4 construct: whole, on cells; also called Rhesus RBC; monkey GPA
T4 sequence: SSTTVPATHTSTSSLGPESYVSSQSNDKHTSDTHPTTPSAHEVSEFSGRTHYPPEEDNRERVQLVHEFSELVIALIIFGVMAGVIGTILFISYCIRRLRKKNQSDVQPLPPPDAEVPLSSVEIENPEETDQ
In words: FACS, RBC Rh01.
Description: as §2

Test [8] deals with T1, human glycophorin A in the red blood …. In words: FACS, RBC Hu02.
Description: as §2
The target in test [9] is T3, purified human glycophorin A protein …. Kind of test: ELISA, hGPA.
Description: as §1
Test [10] deals with T5, GP5 peptide (human, N-terminal biotin).
T5 construct: residues 42 to 61 of the human glycophorin A extracellular domain
T5 peptide: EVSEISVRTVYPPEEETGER
In words: peptides bound to plates (data not shown).

Test [11] addresses T6, asialo hGPA (desialylated human GPA) (human, UniProt P02724 20-150, desialylated).
T6 construct: mature; also called asialo-GPA
T6 sequence (looked up): T1 sequence (looked up)
In words: ELISA, purified IgG.
Description: (§3) The “Sigma GPA” is a crude preparation of human GPA extracted from human red blood cells and is therefore representative of the highly glycosylated form of the native protein.
(§4) EC 50 values were determined from a dilution curve of the antibody. Sigma GPA is partially purified GPA extracted from human red blood cells and purchased from Sigma Chemical Company (cat # G5017), asialo hGPA is human GPA that was desialylated and ECD is the recombinantly expressed ectodomain which is the extracellular portion of GPA.

In test [12] the target is T3, purified human glycophorin A protein …. In words: ELISA, purified IgG.
Description: as §3, §4
Test [13] has as its target T2, recombinant human GPA ectodomain. Kind of test: ELISA, purified IgG.
Description: as §3, §4
Test [14] addresses T4, Rhesus monkey glycophorin A on Rhesus …. In words: FACS, RBC Rh02.
Test [15] deals with T1, human glycophorin A in the red blood …. In words: FACS, RBC Hu01.
Description: as §2
Test [16] deals with T7, dog red blood cells (dog).
T7 construct: also called dog RBC
In words: FACS, dog RBC.
Description: as §1

Test [17] concerns the target T8, Cynomolgus monkey glycophorin A on Cynomolgus monkey red blood cells (Cynomolgus monkey).
T8 construct: whole, on cells; also called Cyno RBC; Cyno GPA
Kind of test: FACS, Cyno RBC.
Description: as §1

Test [18] has as its target T4, Rhesus monkey glycophorin A on Rhesus …. In words: FACS, RBC Rh03.
Description: as §2
Test [19] has as its target T8, Cynomolgus monkey glycophorin A on …. In words: FACS, RBC Cy01.
Description: as §2
The target is the same in test [20]. Kind of test: FACS, RBC Cy02.
Description: as §2
Test [21] deals with T9, GP5-12 (human, biotin at the N-terminus).
T9 construct: GP5 with alanine at position 12 (P12A), already in the entry
T9 peptide: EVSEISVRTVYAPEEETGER
In words: ELISA, biotin-peptide on streptavidin plate, Fab 1 ug/ml.

The target in test [22] is T10, GP5-17 (human, biotin at the N-terminus).
T10 construct: GP5 with alanine at position 17 (T17A), already in the entry
T10 peptide: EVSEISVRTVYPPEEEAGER
The test is described as above.

Test [23] deals with T11, GP5-9 (human, biotin at the N-terminus).
T11 construct: GP5 with alanine at position 9 (T9A), already in the entry
T11 peptide: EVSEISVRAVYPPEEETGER
The test is described as above.

Test [24] addresses T12, GP5-1 (human, biotin at the N-terminus).
T12 construct: GP5 with alanine at position 1 (E1A), already in the entry
T12 peptide: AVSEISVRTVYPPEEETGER
The description is as above.

For test [25], the target named is T13, GP5-2 (human, biotin at the N-terminus).
T13 construct: GP5 with alanine at position 2 (V2A), already in the entry
T13 peptide: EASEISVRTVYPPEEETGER
The test is described as above.

Test [26] addresses T14, GP5-16 (human, biotin at the N-terminus).
T14 construct: GP5 with alanine at position 16 (E16A), already in the entry
T14 peptide: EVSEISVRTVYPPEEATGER
Described as above.

The target of test [27] is T15, GP5-20 (human, biotin at the N-terminus).
T15 construct: GP5 with alanine at position 20 (R20A), already in the entry
T15 peptide: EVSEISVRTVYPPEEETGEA
The test is described as above.

Test [28] has as its target T16, GP5-11 (human, biotin at the N-terminus).
T16 construct: GP5 with alanine at position 11 (Y11A), already in the entry
T16 peptide: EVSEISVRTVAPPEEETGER
Described as above.

Test [29] deals with T17, GP5-7 (human, biotin at the N-terminus).
T17 construct: GP5 with alanine at position 7 (V7A), already in the entry
T17 peptide: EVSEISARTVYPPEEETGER
Described as above.

Test [30] addresses T18, GP5-5 (human, biotin at the N-terminus).
T18 construct: GP5 with alanine at position 5 (I5A), already in the entry
T18 peptide: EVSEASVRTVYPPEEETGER
The test is described as above.

Test [31] addresses T19, GP5-18 (human, biotin at the N-terminus).
T19 construct: GP5 with alanine at position 18 (G18A), already in the entry
T19 peptide: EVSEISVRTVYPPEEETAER
Described as above.

Test [32] has as its target T20, GP5-10 (human, biotin at the N-terminus).
T20 construct: GP5 with alanine at position 10 (V10A), already in the entry
T20 peptide: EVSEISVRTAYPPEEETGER
The description is as above.

In test [33] the target is T21, GP5-8 (human, biotin at the N-terminus).
T21 construct: GP5 with alanine at position 8 (R8A), already in the entry
T21 peptide: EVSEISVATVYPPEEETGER
The test is described as above.

Test [34] concerns the target T22, GP5-14 (human, biotin at the N-terminus).
T22 construct: GP5 with alanine at position 14 (E14A), already in the entry
T22 peptide: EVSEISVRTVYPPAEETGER
Described as above.

In test [35] the target is T23, GP5-6 (human, biotin at the N-terminus).
T23 construct: GP5 with alanine at position 6 (S6A), already in the entry
T23 peptide: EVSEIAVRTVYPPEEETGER
The test is described as above.

For test [36], the target named is T24, GP5-15 (human, biotin at the N-terminus).
T24 construct: GP5 with alanine at position 15 (E15A), already in the entry
T24 peptide: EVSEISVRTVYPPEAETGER
The description is as above.

Test [37] has as its target T25, GP5-4 (human, biotin at the N-terminus).
T25 construct: GP5 with alanine at position 4 (E4A), already in the entry
T25 peptide: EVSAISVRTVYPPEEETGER
The test is described as above.

The target in test [38] is T26, GP5-3 (human, biotin at the N-terminus).
T26 construct: GP5 with alanine at position 3 (S3A), already in the entry
T26 peptide: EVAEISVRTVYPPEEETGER
The test is described as above.

Test [39] addresses T27, GP5-13 (human, biotin at the N-terminus).
T27 construct: GP5 with alanine at position 13 (P13A), already in the entry
T27 peptide: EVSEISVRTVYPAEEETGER
The test is described as above.

Test [40] deals with T28, GP5-19 (human, biotin at the N-terminus).
T28 construct: GP5 with alanine at position 19 (E19A), already in the entry
T28 peptide: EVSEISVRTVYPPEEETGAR
Described as above.

B1: TPP-7792 scFv (scFv)
scFv: DIQLTQSPSFLSASVGDRVTITCRASSSVRYIYWFQQKPGKAPKLLIYATSFRQSGVPSRFSGSGSGTEYTLTISSLQPEDFATYYCHQRNSFPYTFGQGTKLEIKEVQLVQSGAEVKKPGASVKVSCKASGYTFTTYAIHWVRQAPGQGLEWMGYINPSSGYTRYNPKFKGRVTMTRDKSTSTAYMELRSLRSDDTAVYYCWTGTRDYWGQGTTVTVSS
notes: as m101 (tag, order, linker)
Broadly, the EC50 (read off the curve) is the concentration giving half of the maximal effect. For B1, the “EC50 (read off the curve)” value in test [1] was around 20 µg/mL.

B2: 6C12B8/H8 (antibody, V domains shown)
VH: RVQLQQSGAELARPGASVKMSCKASGYTFTTYTIHWVKQKTGQGLEWIGYINPSSDYTRYNPKFKDKATLTTDKSSSTAYMKLNSLASDDSAVYYCQTGTRDYWGQGTTLTVSS
VL: QIVLTQSPPIMSASPGEKVTMTCSAASSVSYIYWFQQKPGTSPKLWIYSTSTLPSGVPTRFSGSGSGTSYSLTISRMEAEDAATYYCHQRNSFPFTFGSGTKLEIR
notes: mouse IgG1/k from hybridoma; also called 6C12 parental; TPP-3422
In general, Kd refers to the concentration at which binding is half-saturated. In general, koff refers to a measure of how fast the partners let go of each other. The term kon denotes a measure of how fast the partners come together. The term t½ denotes the time in which the quantity being followed falls by half. One may read the EC50 as the concentration giving half of the maximal effect. Regarding B2, in test [2], the “EC50 (read off the curve)” value was around 0.06 µg/mL. Besides, the FACS signal in test [3] is 3100 relative flourescence units; in test [16], 1.18 relative flourescence units; in test [17] it was 292 relative flourescence units. The equilibrium dissociation constant (Kd) in [4] was 2.98 nM. For the same molecule, the koff in test [4] turned out to be 0.00212 s⁻¹. In test [4], the kon worked out at 711000 M⁻¹ s⁻¹. The t½ in [4] came to 5.4 min. In addition, the fluorescence intensity in test [5] was found to be 2680; in test [7], 3780; in [8] it was 2540; in test [14] it was 3410; in test [15] it was 3520; in test [18] it was 3180. In addition, the fluorescence intensity in test [19] and in test [20] was 2570 each time. Also, the 50% effective concentration (EC50) in test [6] was 0.326 nM; in [9] it was 0.791 nM; in test [11] it was 0.69 nM; in [12], 0.64 nM; in test [13], 0.59 nM. Also, the binding result in test [10] is given as “binds”.

B3: TPP-5906 Fab (Fab, V domains shown)
VH: EVQLVQSGAEVKKPGASVKVSCKASGYTFTTYTIHWVRQAPGQGLEWMGYINPSSGYTRYNPKFKGRVTMTRDKSTSTAYMELRSLRSDDTAVYYCQTGTRDYWGQGTTVTVSS
VL: DIQLTQSPSFLSASVGDRVTITCRASSSVSYIYWFQQKPGKAPKLLIYATSTLQSGVPSRFSGSGSGTEYTLTISSLQPEDFATYYCHQRNSFPYTFGQGTKLEIKR
notes: also called parental humanized and germlined 6C12 Fab
In the case of B3, the “binding signal (ELISA)” value in test [21] came to 282; in test [22], 6250; in [23] it was 7280; in [24] it was 5310; in test [25] it was 6170; in [26], 3390. In addition, the “binding signal (ELISA)” value is 6850 in test [27]; -1 in test [28]; 7180 in test [29]; 6780 in test [30]; 6290 in test [31]; 337 in [32]. For the same molecule, the “binding signal (ELISA)” value in test [33] was 7360; in test [34], 9; in test [35], 6370; in [36] it was 366; in test [37], 4840; in test [38], 6160. In addition, the results for the “binding signal (ELISA)” value in test [39] and in test [40] were 2000 and 4580, respectively.
